US7998923B2, “Bioactivation of particles” (The Regents of the University of California, priority 2002, dated 2011)
Square brackets hold non-standard residues; d marks the D form. Cha = N[C@@H](CC1CCCCC1)C(=O)O

Assay: solubilization assay of CdSe/ZnS quantum dots with bioactivation peptides
Format: physicochemical
Details: peptide coated CdSe/ZnS quantum dots, diluted from DMSO
Experimental: A non-limiting example of the MRP is Cha-C-C-Cha-C-C-Cha-C-C-Cha (SEQ. ID. NO. 1) with Cha standing for Cyclohexyl alanine and C for cysteine. […] All synthesis used N-Boc or F-moc protecting groups and sequences may be N-acetylated and/or C-carboxylated. The bioactivation peptides are added directly onto the particles and allowed to form a good dispersion of the quantum dots in DMSO and subsequently yielded stable and highly monodisperse dilutions of the nanocrystals in water and buffer. Stability in water and buffers is enhanced by the addition of a hydrophilic sequence at the N-terminus of the Cha-C-C-Cha . . . sequence. The following sequence was used: G-S-E-S-G-G-S-E-S-G-Cha-C-C-Cha-C-C-Cha-C-C-Cha (SEQ. ID. NO. 2).
This substitution led to aggregations of particles during the reaction and thus lack of migration on electrophoresis gels. Similarly replacing the cysteines in the binding clusters with alanine gave unstable particles that flocculate rapidly after solubilization in aqueous solvents. […]

## NH2-G-S-E-S-G-G-S-E-S-G-Cha-C-C-Cha-C-C-Cha-C-C-Cha-Carboxamide (H-GSESGGSESG[Cha]CC[Cha]CC[Cha]CC[Cha]-NH2; cysteine pairing not given here) [ChaCha E swimmer]
  stability in water and buffers: enhanced
